According to PMC7948479, “Allostery in the nitric oxide dioxygenase mechanism of flavohemoglobin” (The Journal of Biological Chemistry, 2020):

Key:
flavoHb = tested on: flavoHb; design: method as in PMID 22948361; conditions: cited from earlier work
[1] = Methyl viologen reductase activity; format: biochemical; conditions: 37 °C; anaerobic
Procedure: (§1) NADH oxidase activity was followed spectrophotometrically at 340 nm in a 1.0-ml cuvette containing 90 mM Tris chloride buffer, pH 8.2, 100 μM NADH, 200 μM O2, 0.1 μM FAD, 100 μg/ml BSA, and 0.3 mM EDTA and incubated at 37 °C. […] TMAO reductase activity was assayed by following the absorbance decrease at 340 nm in a 1.0-ml anaerobic reaction containing 12 U Aspergillus niger glucose oxidase, 5 mM glucose, 260 U catalase, 400 mM TMAO, 100 μM NADH, 0.1 μM FAD, 100 μg/ml BSA, and 0.3 mM EDTA in 90 mM Tris chloride pH 8.2 and incubated at 37 °C. […] Methyl viologen reductase activity was assayed by following the formation of the blue cation radical at 603 nm and by applying an extinction coefficient of 13,300 M^−1 cm^−1 in a 1.0-ml anaerobic reaction buffered with 10 mM potassium phosphate, pH 7.0, and containing 12 U glucose oxidase, 5 mM glucose, 260 U catalase, 100 μM NADH, 0.1 μM FAD, 100 μg/ml BSA, 0.3 mM EDTA, and 200 mM sodium chloride and incubated at 37 °C. NO reductase activity was assayed amperometrically at 37 °C in a 1.0-ml anaerobic reaction containing 2 μM NO, 100 μM NADH, 0.1 μM FAD, 12 U glucose oxidase, 5 mM glucose, 260 U catalase, 100 μg/ml BSA, and 0.3 mM EDTA buffered with 10 mM potassium phosphate pH 7.0. CO effects were tested at a final concentration of 50 μM as diluted from a 1 mM stock in water. […]

E. coli flavoHb-NOD = E. coli flavoHb-NOD (Escherichia coli, UniProt P24232); format: biochemical; design: made in house; host or cells: E. coli hmp deletion strain AG103 carrying pUC19hmp
Excerpt: We have formulated a steady-state velocity equation for the catalytic cycle with the activating trigger step (KT) (Equation 1).(1) v= Vmax(a) where a=([NO]^2[O2]^2/K1K2K3KTK4)/(1+([O2]/K1)+([O2]^2/K1K2)+(([O2]^2[NO])/K1K2K3)+(([O2]^2[NO])/K1K2K3KT)+(([O2]^2[NO]^2)/K1K2K3KTK4))
(2) v= Vmax(a)(b) where b=[NO]/(K3+([NO](1+((K2/[O2])(1+([NO]/Ki(NO)))))))
In addition, we have introduced a factor and equilibrium constant Ka(O2) for rare situations in which O2 causes an additional NO-independent activation of catalysis possibly by occupying unique binding sites or cavities (Equation 5).
NOD activity was measured amperometrically in 100 mM phosphate buffer, pH 7.0, containing 0.3 mM EDTA, 100 μg/ml bovine serum albumin (BSA) (Fraction V), 100 μM NADH, 0.1 μM FAD with NO, O2, and N2 mixtures added as described ([4], [72]). NADH oxidase activity was followed spectrophotometrically at 340 nm in a 1.0-ml cuvette containing 90 mM Tris chloride buffer, pH 8.2, 100 μM NADH, 200 μM O2, 0.1 μM FAD, 100 μg/ml BSA, and 0.3 mM EDTA and incubated at 37 °C. Cytochrome b5 reductase activity was assayed at 37 °C by following the rate of absorbance increase at 555 nm in a 1.0-ml reaction buffered with 90 mM Tris chloride, pH 8.2, and containing 10 μM ferric cytochrome b5, 200 μM O2, 20 μM NADH, 0.1 μM FAD, 100 μg/ml BSA, and 0.3 mM EDTA. TMAO reductase activity was assayed by following the absorbance decrease at 340 nm in a 1.0-ml anaerobic reaction containing 12 U Aspergillus niger glucose oxidase, 5 mM glucose, 260 U catalase, 400 mM TMAO, 100 μM NADH, 0.1 μM FAD, 100 μg/ml BSA, and 0.3 mM EDTA in 90 mM Tris chloride pH 8.2 and incubated at 37 °C. Ngb reductase activity was assayed by following the absorbance increase at 424 nm in a 1.0-ml anaerobic reaction containing 12 U glucose oxidase, 5 mM glucose, 260 U catalase, 5 μM Ngb, 50 μM NADH, 0.1 μM FAD, 100 μg/ml BSA, and 0.3 mM EDTA in 90 mM Tris chloride buffer, pH 8.2, and incubated at 37 °C. Methyl viologen reductase activity was assayed by following the formation of the blue cation radical at 603 nm and by applying an extinction coefficient of 13,300 M^−1 cm^−1 in a 1.0-ml anaerobic reaction buffered with 10 mM potassium phosphate, pH 7.0, and containing 12 U glucose oxidase, 5 mM glucose, 260 U catalase, 100 μM NADH, 0.1 μM FAD, 100 μg/ml BSA, 0.3 mM EDTA, and 200 mM sodium chloride and incubated at 37 °C. NO reductase activity was assayed amperometrically at 37 °C in a 1.0-ml anaerobic reaction containing 2 μM NO, 100 μM NADH, 0.1 μM FAD, 12 U glucose oxidase, 5 mM glucose, 260 U catalase, 100 μg/ml BSA, and 0.3 mM EDTA buffered with 10 mM potassium phosphate pH 7.0. CO effects were tested at a final concentration of 50 μM as diluted from a 1 mM stock in water. All activities are reported relative to the heme content of flavoHb.
Rate constants were estimated from the model kinetic equation using Python programming with successive approximations to optimize fits with varying NO and O2 concentrations. Vmax, K1, K2, KT, and Kii(NO) values were treated as independent variables for a given flavoHb while allowing K3, K4, and Ki(NO) to vary over limited ranges with varying O2 concentration. Kii(NO) was estimated from NO inhibition at saturating O2 concentrations.

NADH oxidase activity = format: biochemical; conditions: 37 °C; relative to heme content
Procedure: as §1

B1: WT: wild-type E. coli flavohemoglobin (flavoHb), an NO dioxygenase (NOD) (protein, UniProt P24232 1-396, looked up)
Flavohemoprotein: MLDAQTIATVKATIPLLVETGPKLTAHFYDRMFTHNPELKEIFNMSNQRNGDQREALFNAIAAYASNIENLPALLPAVEKIAQKHTSFQIKPEQYNIVGEHLLATLDEMFSPGQEVLDAWGKAYGVLANVFINREAEIYNENASKAGGWEGTRDFRIVAKTPRSALITSFELEPVDGGAVAEYRPGQYLGVWLKPEGFPHQEIRQYSLTRKPDGKGYRIAVKREEGGQVSNWLHNHANVGDVVKLVAPAGDFFMAVADDTPVTLISAGVGQTPMLAMLDTLAKAGHTAQVNWFHAAENGDVHAFADEVKELGQSLPRFTAHTWYRQPSEADRAKGQFDSEGLMDLSKLEGAFSDPTMQFYLCGPVGFMQFTAKQLVDLGVKQENIHYECFGPHKVL
kET by time-resolved pulse radiolysis (flavoHb): 6800 s⁻¹
methyl viologen reductase activity [1]: 0.36 s^−1
Vmax/K3 (E. coli flavoHb-NOD): 2.3e+09 M⁻¹ s⁻¹
bimolecular rate constant of ferric–superoxide complex with internalized NO (E. coli flavoHb-NOD): 10^10 M^−1 s^−1
k'NOD estimated from the Vmax/K4 ratio (E. coli flavoHb-NOD): 1 to 2 × 10^10 M^−1 s^−1
velocity of NOD activity (E. coli flavoHb-NOD): 8 s⁻¹
Ki (E. coli flavoHb-NOD; read-out: Ki(NO) for NO competition with O2 for LT entry): 300 to 1200 nM
NADH oxidase activity (NADH oxidase activity): 0.27 s⁻¹
